For this assay, the target named is sim3-GFP (Arabidopsis thaliana) (UniProt P93002). Put plainly: sim3-GFP IP, LC-MS/MS.
sim3-GFP (Arabidopsis thaliana), sequence (P93002 other isoform, or with tags, fused parts or gaps): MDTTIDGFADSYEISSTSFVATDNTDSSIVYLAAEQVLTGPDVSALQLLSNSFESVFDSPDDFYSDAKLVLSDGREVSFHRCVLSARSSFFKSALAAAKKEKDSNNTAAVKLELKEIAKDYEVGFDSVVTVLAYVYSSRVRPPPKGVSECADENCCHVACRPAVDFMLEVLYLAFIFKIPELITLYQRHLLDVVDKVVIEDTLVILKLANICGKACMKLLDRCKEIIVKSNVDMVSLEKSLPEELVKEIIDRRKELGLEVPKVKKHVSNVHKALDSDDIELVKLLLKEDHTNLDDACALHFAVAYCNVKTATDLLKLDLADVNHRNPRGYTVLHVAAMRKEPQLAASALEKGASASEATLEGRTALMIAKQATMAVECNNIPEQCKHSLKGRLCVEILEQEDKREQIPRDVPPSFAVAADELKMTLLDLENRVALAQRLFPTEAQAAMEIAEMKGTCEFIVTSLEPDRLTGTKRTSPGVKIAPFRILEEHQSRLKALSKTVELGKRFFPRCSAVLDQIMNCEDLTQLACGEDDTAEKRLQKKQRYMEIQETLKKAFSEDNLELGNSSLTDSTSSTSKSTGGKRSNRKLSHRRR

As for “GSTU19, glutathione S-transferase TAU 19 (from UniProt Q9ZRW8 1-219)”, the Normalized Fold Change: SA vs Mock amounted to 2.58 fold. In the case of “ATR4, CYP83B1, RED1, RNT1, SUR2, cytochrome P450, family 83, subfamily B, polypeptide 1 (from UniProt O65782 1-499)” it was 2.42 fold. Under “CAND1, cullin-associated and neddylation dissociated (from UniProt Q8L5Y6 2-1219)” stands 42.1 fold.

Take “SIRANBP, Pleckstrin homology (PH) domain superfamily protein”: the Normalized Fold Change: SA vs Mock stood at 709 fold. In the case of RNA helicase family protein (AT1G27900) it was 1960 fold. Under “CER3, FLP1, WAX2, YRE, Fatty acid hydroxylase superfamily” stands 3320 fold. As for “Leucine-rich repeat (LRR) family protein (AT5G45520)”, the Normalized Fold Change: SA vs Mock came out at 2270 fold. With “ATSPS4F, Sucrose-phosphate synthase family protein”, the Normalized Fold Change: SA vs Mock came out at 2.2 fold. In the case of “Transducin/WD40 repeat-like superfamily protein (AT3G45620)” it was 3.67 fold; in that of “NAD(P)-binding Rossmann-fold superfamily protein (AT4G13180)”, 5.46 fold. Under WAK4, wall associated kinase 4 stands 8.98 fold; under “PCNA2, proliferating cell nuclear antigen 2”, 2.83 fold; under “UBA1, ubiquitin-activating enzyme 1 (from UniProt P93028 1-1080)”, 3.32 fold. In the case of “P-loop containing nucleoside triphosphate hydrolases superfamily protein (AT3G28510)”, the Normalized Fold Change: SA vs Mock was found to be 6.35 fold.

B1: ARD3, acireductone dioxygenase 3 (protein, UniProt Q8W108 1-199, looked up)
Acireductone dioxygenase 3: MGEVVKDGREEVIQAWYMDDSEEDQRLPHHKDPKEFLSLDKLAELGVLSWRLDADNYETDEDLKKIRESRGYSYMDFCEVCPEKLPNYEVKVKSFFEEHLHTDEEIRYCVAGSGYFDVRDRNEAWIRVWVKKGGMIVLPAGIYHRFTVDSDNYIKAMRLFVGEPVWTPYNRPHDHLPARKEYIDNFVKVNEGGVIDASA
In turn, B1 displayed a Normalized Fold Change: SA vs Mock of 8.57 fold.

B2: RPP5, Disease resistance protein (TIR-NBS-LRR class) (protein, UniProt F4JNB7 1-1449, looked up)
Disease resistance protein RPP5: MAASSSSGRRRYDVFPSFSGVDVRKTFLSHLIEALDGKSINTFIDHGIERSRTIAPELISAIREARISIVIFSKNYASSTWCLNELVEIHKCFNDLGQMVIPVFYDVDPSEVRKQTGEFGKVFEKTCEVSKDKQPGDQKQRWVQALTDIANIAGEDLLNGPNEAHMVEKISNDVSNKLITRSKCFDDFVGIEAHIEAIKSVLCLESKEARMVGIWGQSGIGKSTIGRALFSQLSIQFPLRAFLTYKSTSGSDVSGMKLSWEKELLSEILGQKDIKIEHFGVVEQRLKHKKVLILLDDVDNLEFLKTLVGKAEWFGSGSRIIVITQDRQFLKAHDIDLVYEVKLPSQGLALTMLCRSAFGKDSPPDDFKELAFEVAKLAGHLPLGLNVLGSSLRRRGKKEWMEMMPRLRNGLNGDIMKTLRVSYDRLHQKDQDMFLCIACLFNGFEVSYVKDLLEDNVGLTMLSEKSLIRITPDGHIEMHNLLEKLGREIDRAKSKGNPGKRQFLTNFEDIHEVVTEKTGTETLLGIRLPFEEYFSTRPLLIDKESFKGMRNLQYLKIGDWSDGGQPQSLVYLPLKLRLLDWDDCPLKSLPSTFKAEYLVNLIMKYSKLEKLWEGTLPLGSLKKMNLLCSKNLKEIPDLSNARNLEELDLEGCESLVTLPSSIQNAIKLRKLHCSGVILIDLKSLEGMCNLEYLSVDCSRVEGTQGIVYFPSKLRLLLWNNCPLKRLHSNFKVEYLVKLRMENSDLEKLWDGTQPLGRLKQMFLRGSKYLKEIPDLSLAINLEEVDICKCESLVTFPSSMQNAIKLIYLDISDCKKLESFPTDLNLESLEYLNLTGCPNLRNFPAIKMGCSDVDFPEGRNEIVVEDCFWNKNLPAGLDYLDCLMRCMPCEFRPEYLVFLNVRCYKHEKLWEGIQSLGSLEEMDLSESENLTEIPDLSKATNLKHLYLNNCKSLVTLPSTIGNLQKLVRLEMKECTGLEVLPTDVNLSSLETLDLSGCSSLRTFPLISKSIKWLYLENTAIEEILDLSKATKLESLILNNCKSLVTLPSTIGNLQNLRRLYMKRCTGLEVLPTDVNLSSLGILDLSGCSSLRTFPLISTNIVWLYLENTAIGEVPCCIEDFTRLRVLLMYCCQRLKNISPNIFRLRSLMFADFTDCRGVIKALSDATVVATMEDSVSCVPLSENIEYTCERFWGELYGDGDWDLGTEYFSFRNCFKLDRDARELILRSCFKPVALPGGEIPKYFTYRAYGDSLTVTLPRSSLSQSFLRFKACLVVDPLSEGKGFYRYLEVNFGFNGKQYQKSFLEDEELEFCKTDHLFFCSFKFESEMTFNDVEFKFCCSNRIKECGVRLMYVSQETEYNQQTTRSKKRMRMTSGTSEEYINLAGDQIVADTGLAALNMELSLGEGEASSSTSLEGEALSVDYMITKEQDEDIPFLDPVSDGTWRSFYSAE
B2 came in with a Normalized Fold Change: SA vs Mock of 3.79 fold.

B3: HDA15, histone deacetylase 15 (protein, UniProt Q8GXJ1 1-552, looked up)
Histone deacetylase 15: MVVETIERSCEGSKRRHVNGGDIAVPCSGEECSNGDINVAPGVSAKRARVSREMTFEDIYGADALLNDDDDEDDDCDWEPVQAPMEFVKWCCVNCTMSNPGDMVHCCICGEHKESGILRHGYLASPFFKDTGLIEVEEKYGGSSSATSSTAVGFDERMLLHSEFEVKAQPHPERPDRLRAIAASLATAGVFPGRCLPINAREITKQELQMVHTSEHVDAVDTTSQLLYSYFTSDTYANEYSARAARLAAGLCADLATDIFTGRVKNGFALVRPPGHHAGVRHAMGFCLHNNAAVAALVAQAAGAKKVLIVDWDVHHGNGTQEIFEQNKSVLYISLHRHEGGNFYPGTGAADEVGSNGGEGYCVNVPWSCGGVGDKDYIFAFQHVVLPIASAFSPDFVIISAGFDAARGDPLGCCDVTPAGYSRMTQMLGDLCGGKMLVILEGGYNLRSISASATAVIKVLLGENPENELPIATTPSVAGLQTVLDVLNIQLEFWPSLAISYSKLLSELEARLIENKKNQMKRKVVRVPTWWKWGRKKLLYNFLSARMISRSK
B3 yielded a Normalized Fold Change: SA vs Mock of 2570 fold.

B4: UGT85A1, UDP-Glycosyltransferase superfamily protein (protein, UniProt Q9SK82 1-489, looked up)
UDP-glycosyltransferase 85A1: MGSQIIHNSQKPHVVCVPYPAQGHINPMMRVAKLLHARGFYVTFVNTVYNHNRFLRSRGSNALDGLPSFRFESIADGLPETDMDATQDITALCESTMKNCLAPFRELLQRINAGDNVPPVSCIVSDGCMSFTLDVAEELGVPEVLFWTTSGCAFLAYLHFYLFIEKGLCPLKDESYLTKEYLEDTVIDFIPTMKNVKLKDIPSFIRTTNPDDVMISFALRETERAKRASAIILNTFDDLEHDVVHAMQSILPPVYSVGPLHLLANREIEEGSEIGMMSSNLWKEEMECLDWLDTKTQNSVIYINFGSITVLSVKQLVEFAWGLAGSGKEFLWVIRPDLVAGEEAMVPPDFLMETKDRSMLASWCPQEKVLSHPAIGGFLTHCGWNSILESLSCGVPMVCWPFFADQQMNCKFCCDEWDVGIEIGGDVKREEVEAVVRELMDGEKGKKMREKAVEWQRLAEKATEHKLGSSVMNFETVVSKFLLGQKSQD
Molecule B4 came in with a Normalized Fold Change: SA vs Mock of 4.86 fold.

B5: UGT74F2, UDP-glucosyltransferase 74F2 (protein, UniProt O22822 1-449, looked up)
UDP-glycosyltransferase 74F2: MEHKRGHVLAVPYPTQGHITPFRQFCKRLHFKGLKTTLALTTFVFNSINPDLSGPISIATISDGYDHGGFETADSIDDYLKDFKTSGSKTIADIIQKHQTSDNPITCIVYDAFLPWALDVAREFGLVATPFFTQPCAVNYVYYLSYINNGSLQLPIEELPFLELQDLPSFFSVSGSYPAYFEMVLQQFINFEKADFVLVNSFQELELHENELWSKACPVLTIGPTIPSIYLDQRIKSDTGYDLNLFESKDDSFCINWLDTRPQGSVVYVAFGSMAQLTNVQMEELASAVSNFSFLWVVRSSEEEKLPSGFLETVNKEKSLVLKWSPQLQVLSNKAIGCFLTHCGWNSTMEALTFGVPMVAMPQWTDQPMNAKYIQDVWKAGVRVKTEKESGIAKREEIEFSIKEVMEGERSKEMKKNVKKWRDLAVKSLNEGGSTDTNIDTFVSRVQSK
B5 registered a Normalized Fold Change: SA vs Mock of 8.99 fold.

B6: ISU1, SufE/NifU family protein (protein, UniProt O49627 51-167, looked up)
Iron-sulfur cluster assembly protein 1: PNVGTGLVGAPACGDVMKLQIKVDEKTGQIVDARFKTFGCGSAIASSSVATEWVKGKAMEDVLTIKNTEIAKHLSLPPVKLHCSMLAEDAIKAAVKDYKEKRVKTNGAAAAGETTQA
In turn, B6 had a Normalized Fold Change: SA vs Mock of 3.44 fold.

B7: TCH4, XTH22, Xyloglucan endotransglucosylase/hydrolase family protein (protein, UniProt Q38857 22-284, looked up)
Xyloglucan endotransglucosylase/hydrolase protein 22: NFQRDVEITWGDGRGQIKNNGELLTLSLDKSSGSGFQSKNEYLFGKVSMQMKLVPGNSAGTVTTLYLKSPGTTWDEIDFEFLGNSSGEPYTLHTNVYTQGKGDKEQQFKLWFDPTANFHTYTILWNPQRIIFTVDGTPIREFKNMESLGTLFPKNKPMRMYSSLWNADDWATRGGLVKTDWSKAPFTASYRGFQQEACVWSNGKSSCPNASKQGTTTGSWLSQELDSTAQQRMRWVQRNYMIYNYCTDAKRFPQGLPKECLAA
B7: the Normalized Fold Change: SA vs Mock was 102 fold.

B8: RPP1, Disease resistance protein (TIR-NBS-LRR class) family (protein, UniProt F4J339 1-1194, looked up)
Probable disease resistance protein RPP1: MGSVMSLGCSKRKATNQDVDSESRKRRKICSTNDAENCRFIQDESSWKHPWSLCANRVISVAAVALTNFRFQQDNQESNSSSLSLPSPATSVSRNWKHDVFPSFHGADVRRTFLSHIMESFRRKGIDTFIDNNIERSKSIGPELKEAIKGSKIAIVLLSRKYASSSWCLDELAEIMKCRQMVGQIVMTIFYEVDPTDIKKQTGEFGKAFTKTCRGKPKEQVERWRKALEDVATIAGYHSHSWRNEADMIEKISTDVSNMLNSFTPSRDFDGLVGMRAHMDMLEQLLRLDLDEVRMIGIWGPPGIGKTTIARFLFNQVSDRFQLSAIMVNIKGCYPRPCFDEYSAQLQLQNQMLSQMINHKDIMISHLGVAQERLRDKKVFLVLDEVDQLGQLDALAKETRWFGPGSRIIITTEDLGVLKAHGINHVYKVEYPSNDEAFQIFCMNAFGQKQPHEGFDEIAWEVTCLAGELPLGLKVLGSALRGKSKREWERTLPRLKTSLDGKIGSIIQFSYDVLCDEDKYLFLYIACLFNGESTTKVKELLGKFLDVKQGLHLLAQKSLISFDGERIHMHTLLEQFGRETSRKQFVHHGFTKRQLLVGARGICEVLDDDTTDSRRFIGIHLELSNTEEELNISEKVLERVHDFHFVRIDASFQPERLQLALQDLIYHSPKIRSLNWYGYESLCLPSTFNPEFLVELDMRSSNLRKLWEGTKQLRNLKWMDLSYSSYLKELPNLSTATNLEELKLRNCSSLVELPSSIEKLTSLQILDLENCSSLEKLPAIENATKLRELKLQNCSSLIELPLSIGTATNLKQLNISGCSSLVKLPSSIGDITDLEVFDLSNCSSLVTLPSSIGNLQNLCKLIMRGCSKLEALPININLKSLDTLNLTDCSQLKSFPEISTHISELRLKGTAIKEVPLSIMSWSPLADFQISYFESLMEFPHAFDIITKLHLSKDIQEVPPWVKRMSRLRDLSLNNCNNLVSLPQLSDSLDYIYADNCKSLERLDCCFNNPEIRLYFPKCFKLNQEARDLIMHTCIDAMFPGTQVPACFIHRATSGDSLKIKLKESPLPTTLRFKACIMLVKVNEELMSYDQTPMIVDIVIRDEHNDLKEKIYPSIYPSIYPLLTEHIYTFELDVEEVTSTELVFEFPQLNKRNWKIGECGILQRETRSLRRSSSPDLSPESSRVSSYDHCLRGD
For the molecule B8, the Normalized Fold Change: SA vs Mock turned out to be 13.7 fold.

The values above are taken from patent US20230227838A1, “ENHANCED CELL SURVIVAL AGAINST BIOTIC AND ABIOTIC STRESSES THROUGH SALICYLICK ACID-INDUCED NPR1 CONDENSATES” (priority 2020, published 2023).
